Test results reported in patent US20250115669A1, “FGFR1/KLB Targeting Agonistic Antigen-Binding Proteins and Conjugates Thereof with GLP-1R Agonistic Peptides” (SANOFI, priority 2020, published 2025).

T1: human beta-Klotho (Homo sapiens, UniProt Q86Z14)
T1 sequence (Q86Z14 1-1044): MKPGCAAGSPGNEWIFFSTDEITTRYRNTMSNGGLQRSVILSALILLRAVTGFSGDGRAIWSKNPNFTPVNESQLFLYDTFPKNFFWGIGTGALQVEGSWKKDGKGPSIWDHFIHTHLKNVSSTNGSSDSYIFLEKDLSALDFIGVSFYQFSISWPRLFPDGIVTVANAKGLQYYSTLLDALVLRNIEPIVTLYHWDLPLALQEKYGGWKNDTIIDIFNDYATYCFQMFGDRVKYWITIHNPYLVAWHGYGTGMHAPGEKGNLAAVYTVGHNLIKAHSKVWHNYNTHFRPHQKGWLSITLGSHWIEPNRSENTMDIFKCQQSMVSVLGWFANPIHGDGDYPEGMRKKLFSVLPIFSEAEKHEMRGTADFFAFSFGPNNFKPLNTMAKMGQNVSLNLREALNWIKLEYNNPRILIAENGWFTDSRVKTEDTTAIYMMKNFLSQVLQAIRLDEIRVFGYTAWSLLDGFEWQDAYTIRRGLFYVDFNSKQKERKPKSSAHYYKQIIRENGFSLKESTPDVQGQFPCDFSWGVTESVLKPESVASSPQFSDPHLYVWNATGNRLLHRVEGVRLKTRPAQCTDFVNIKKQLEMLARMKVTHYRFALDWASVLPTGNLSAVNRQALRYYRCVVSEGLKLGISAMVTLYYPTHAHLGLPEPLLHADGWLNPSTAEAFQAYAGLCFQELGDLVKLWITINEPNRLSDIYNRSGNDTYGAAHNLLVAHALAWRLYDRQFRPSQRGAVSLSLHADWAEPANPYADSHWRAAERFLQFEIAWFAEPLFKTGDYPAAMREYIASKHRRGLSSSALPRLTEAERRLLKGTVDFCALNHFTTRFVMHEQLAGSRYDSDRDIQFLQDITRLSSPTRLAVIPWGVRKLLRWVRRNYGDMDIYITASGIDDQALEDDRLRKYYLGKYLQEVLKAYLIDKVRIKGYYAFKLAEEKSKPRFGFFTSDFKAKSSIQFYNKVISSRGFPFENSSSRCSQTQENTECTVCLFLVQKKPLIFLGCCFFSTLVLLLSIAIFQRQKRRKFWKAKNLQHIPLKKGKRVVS

B1: Ab0319: IgG4 PE; 16H7 VL (D49Y, D50E, D91T, N93E); 16H7 VH (M34V, I83T, D109E) (antibody)
VH: QVTLKESGPVLVKPTETLTLTCTVSGFSLNNARVGVSWIRQPPGKALEWLAHIFSNDEKSYSTSLKSRLTISKDTSKSQVVLTMTNMDPVDTATYYCARSVVTGGYYYEGMDVWGQGTTVTVSS
light: SYVLTQPPSVSVAPGQTARITCGGNNIGSESVHWYQQKPGQAPVLVVYYESDRPSGIPERFSGSNSGNTATLTISRVEAGDEADYYCQVWTGESDHVVFGGGTKLTVLGQPKANPTVTLFPPSSEELQANKATLVCLISDFYPGAVTVAWKADGSPVKAGVETTKPSKQSNNKYAASSYLSLTPEQWKSHRSYSCQVTHEGSTVEKTVAPTECS
B2: Ab0320: IgG4 PE; 16H7 VL (N25S, D49Y, D50E, D91T, N93E); 16H7 VH (M34V, I83T, D109E) (antibody)
VH: QVTLKESGPVLVKPTETLTLTCTVSGFSLNNARVGVSWIRQPPGKALEWLAHIFSNDEKSYSTSLKSRLTISKDTSKSQVVLTMTNMDPVDTATYYCARSVVTGGYYYEGMDVWGQGTTVTVSS
light: SYVLTQPPSVSVAPGQTARITCGGSNIGSESVHWYQQKPGQAPVLVVYYESDRPSGIPERFSGSNSGNTATLTISRVEAGDEADYYCQVWTGESDHVVFGGGTKLTVLGQPKANPTVTLFPPSSEELQANKATLVCLISDFYPGAVTVAWKADGSPVKAGVETTKPSKQSNNKYAASSYLSLTPEQWKSHRSYSCQVTHEGSTVEKTVAPTECS
B3: Ab0371: IgG4 PE; 16H7 VL (Y48del, D95E, W90H); 16H7 VH (M34V, H52W, I83T, D109E) (antibody)
VH: QVTLKESGPVLVKPTETLTLTCTVSGFSLNNARVGVSWIRQPPGKALEWLAWIFSNDEKSYSTSLKSRLTISKDTSKSQVVLTMTNMDPVDTATYYCARSVVTGGYYYEGMDVWGQGTTVTVSS
light: SYVLTQPPSVSVAPGQTARITCGGNNIGSESVHWYQQKPGQAPVLVVDDSDRPSGIPERFSGSNSGNTATLTISRVEAGDEADYYCQVHDGNSEHVVFGGGTKLTVLGQPKANPTVTLFPPSSEELQANKATLVCLISDFYPGAVTVAWKADGSPVKAGVETTKPSKQSNNKYAASSYLSLTPEQWKSHRSYSCQVTHEGSTVEKTVAPTECS
B4: Ab0372: IgG4 PE; 16H7 VL (Y48del, D95E, W90H, S1C, S94C); 16H7 VH (M34V, H52W, I83T, D109E) (antibody)
VH: QVTLKESGPVLVKPTETLTLTCTVSGFSLNNARVGVSWIRQPPGKALEWLAWIFSNDEKSYSTSLKSRLTISKDTSKSQVVLTMTNMDPVDTATYYCARSVVTGGYYYEGMDVWGQGTTVTVSS
light: CYVLTQPPSVSVAPGQTARITCGGNNIGSESVHWYQQKPGQAPVLVVDDSDRPSGIPERFSGSNSGNTATLTISRVEAGDEADYYCQVHDGNCEHVVFGGGTKLTVLGQPKANPTVTLFPPSSEELQANKATLVCLISDFYPGAVTVAWKADGSPVKAGVETTKPSKQSNNKYAASSYLSLTPEQWKSHRSYSCQVTHEGSTVEKTVAPTECS
B5: Ab0373: IgG4 PE; 16H7 VL (Y48del, D95E, W90H, S94C, H96C); 16H7 VH (M34V, H52W, I83T, D109E) (antibody)
VH: QVTLKESGPVLVKPTETLTLTCTVSGFSLNNARVGVSWIRQPPGKALEWLAWIFSNDEKSYSTSLKSRLTISKDTSKSQVVLTMTNMDPVDTATYYCARSVVTGGYYYEGMDVWGQGTTVTVSS
light: SYVLTQPPSVSVAPGQTARITCGGNNIGSESVHWYQQKPGQAPVLVVDDSDRPSGIPERFSGSNSGNTATLTISRVEAGDEADYYCQVHDGNCECVVFGGGTKLTVLGQPKANPTVTLFPPSSEELQANKATLVCLISDFYPGAVTVAWKADGSPVKAGVETTKPSKQSNNKYAASSYLSLTPEQWKSHRSYSCQVTHEGSTVEKTVAPTECS
B6: Ab0376: IgG4 PE; 16H7 VL (Y48del, D95E, W90F, S94C, H96C); 16H7 VH (M34V, F54W, I83T, D109E) (antibody)
VH: QVTLKESGPVLVKPTETLTLTCTVSGFSLNNARVGVSWIRQPPGKALEWLAHIWSNDEKSYSTSLKSRLTISKDTSKSQVVLTMTNMDPVDTATYYCARSVVTGGYYYEGMDVWGQGTTVTVSS
light: SYVLTQPPSVSVAPGQTARITCGGNNIGSESVHWYQQKPGQAPVLVVDDSDRPSGIPERFSGSNSGNTATLTISRVEAGDEADYYCQVFDGNCECVVFGGGTKLTVLGQPKANPTVTLFPPSSEELQANKATLVCLISDFYPGAVTVAWKADGSPVKAGVETTKPSKQSNNKYAASSYLSLTPEQWKSHRSYSCQVTHEGSTVEKTVAPTECS
B7: Ab0374: IgG4 PE; 16H7 VL (Y48del, D95E, W90F); 16H7 VH (M34V, F54W, I83T, D109E) (antibody)
VH: QVTLKESGPVLVKPTETLTLTCTVSGFSLNNARVGVSWIRQPPGKALEWLAHIWSNDEKSYSTSLKSRLTISKDTSKSQVVLTMTNMDPVDTATYYCARSVVTGGYYYEGMDVWGQGTTVTVSS
light: SYVLTQPPSVSVAPGQTARITCGGNNIGSESVHWYQQKPGQAPVLVVDDSDRPSGIPERFSGSNSGNTATLTISRVEAGDEADYYCQVFDGNSEHVVFGGGTKLTVLGQPKANPTVTLFPPSSEELQANKATLVCLISDFYPGAVTVAWKADGSPVKAGVETTKPSKQSNNKYAASSYLSLTPEQWKSHRSYSCQVTHEGSTVEKTVAPTECS
B8: Ab0377: IgG4 PE; 16H7 VL (Y48del, D95V, W90F); 16H7 VH (M34V, F54W, I83T, D109E) (antibody)
VH: QVTLKESGPVLVKPTETLTLTCTVSGFSLNNARVGVSWIRQPPGKALEWLAHIWSNDEKSYSTSLKSRLTISKDTSKSQVVLTMTNMDPVDTATYYCARSVVTGGYYYEGMDVWGQGTTVTVSS
light: SYVLTQPPSVSVAPGQTARITCGGNNIGSESVHWYQQKPGQAPVLVVDDSDRPSGIPERFSGSNSGNTATLTISRVEAGDEADYYCQVFDGNSVHVVFGGGTKLTVLGQPKANPTVTLFPPSSEELQANKATLVCLISDFYPGAVTVAWKADGSPVKAGVETTKPSKQSNNKYAASSYLSLTPEQWKSHRSYSCQVTHEGSTVEKTVAPTECS
B9: Ab0378: IgG4 PE; 16H7 VL (Y48del, D95V, W90F); 16H7 VH (M34V, H52S, F54W, I83T, D109E) (antibody)
VH: QVTLKESGPVLVKPTETLTLTCTVSGFSLNNARVGVSWIRQPPGKALEWLASIWSNDEKSYSTSLKSRLTISKDTSKSQVVLTMTNMDPVDTATYYCARSVVTGGYYYEGMDVWGQGTTVTVSS
light: SYVLTQPPSVSVAPGQTARITCGGNNIGSESVHWYQQKPGQAPVLVVDDSDRPSGIPERFSGSNSGNTATLTISRVEAGDEADYYCQVFDGNSVHVVFGGGTKLTVLGQPKANPTVTLFPPSSEELQANKATLVCLISDFYPGAVTVAWKADGSPVKAGVETTKPSKQSNNKYAASSYLSLTPEQWKSHRSYSCQVTHEGSTVEKTVAPTECS
B10: Ab0379: IgG4 PE; 16H7 VL (Y48del, D95V, W90F, S1C, S94C); 16H7 VH (M34V, F54W, I83T, D109E) (antibody)
VH: QVTLKESGPVLVKPTETLTLTCTVSGFSLNNARVGVSWIRQPPGKALEWLAHIWSNDEKSYSTSLKSRLTISKDTSKSQVVLTMTNMDPVDTATYYCARSVVTGGYYYEGMDVWGQGTTVTVSS
light: CYVLTQPPSVSVAPGQTARITCGGNNIGSESVHWYQQKPGQAPVLVVDDSDRPSGIPERFSGSNSGNTATLTISRVEAGDEADYYCQVFDGNCVHVVFGGGTKLTVLGQPKANPTVTLFPPSSEELQANKATLVCLISDFYPGAVTVAWKADGSPVKAGVETTKPSKQSNNKYAASSYLSLTPEQWKSHRSYSCQVTHEGSTVEKTVAPTECS

The molecules below were run against T1, human beta-Klotho (assay: SPR off-rate screening of antibody mutants (human beta-Klotho captured by anti-His antibody)). Details: mean, n=3.
Assay type: binding
Protocol: Screening of antibody mutants for binding to human beta-Klotho was determined in a different SPR assay set up. Human beta-Klotho was affinity captured by an anti-His antibody (from His capture kit, GE Healthcare) that was immobilized to a series S CM5 chip (GE Healthcare) by amine reactive coupling as described above. The antibody samples were used as analytes at 50 nmol/L concentration. Association time was 240 sec and dissociation time was 300 sec. Chip surfaces were regenerated using the regeneration solution supplied with the His capture kit. The off-rates (kd) were determined using single exponential fitting in the Biacore 8K Evaluation Software version 1.1.1.7442 (GE Healthcare).
B1 was tested, and the “koff human KLB” value was “invalid fit”. For B2, the “koff human KLB” value was “invalid fit”. B3 was tested, and the “koff human KLB” value was “no binding”. In the case of B4, the “koff human KLB” value is reported as “no binding”. With B5 the “koff human KLB” value was “no binding”. With B6 the “koff human KLB” value was “no binding”. B7 was tested, and the “koff human KLB” value was “no binding”. With B8 the “koff human KLB” value was “no binding”. For B9, the “koff human KLB” value was “no binding”. In the case of B10, the “koff human KLB” value is reported as “no binding”.
